# Measurements published in the DeepSol protein solubility set.
# Experiment: soluble on expression in E. coli; label from the status in PepcDB or PDB records
row,Sequence,soluble on expression in E. coli
1,MTELEAAMGMIIDVFSRYSGSEGSTQTLTKGELKVLMEKELPGFLQSGKDKDAVDKLLKDLDANGDAQVDFSEFIVFVAAITSASHKYFEKTGLK,soluble
2,MTELSAFPITRKWPAKHPERLQLYSLPTPNGVKVSIMLEEIGLAYEAHKVSFDNDDQLSPEFISLSANNKIPAILDPNGPGGQPLALFESGAILQYLAEKSGQLLSQDPAQRYQTLQWLMFQMGGIGPMFGQVGFFHFFAGKEYEDKRPRDRYVNESKRLLGVLDRHLKGRQWMAEEYSIADIAIFPWVRNLVERYNARDLVGFDQFKEVQRVLANFLERPAVQRGLKIPG,not soluble
3,MTENEDLVAGLLLAAGGGRRLGGRPKALLEHRGRPLVEHVAGVLRAAGSTRVYVVLGAQAAAVRERAVLPGCILVDNPDWELGMGTSLRAGLEAMHGTGVRAALVSLVDQPGIGPAAVARVRAAYTSPSTLASAAYDGVRGHPVLFGAAHWAAVAASATGDRGARAYLKAHESAITLVECGDVAEAYDIDTVADLVHLELEHHHHHH,not soluble
4,MTEPLILQPAKPADACVIWLHGLGADRYDFMPVAEALQESLLTTRFVLPQAPTRPVTINGGYEMPSWYDIKAMSPARSISLEELEVSAKMVTDLIEAQKRTGIDASRIFLAGFSQGGAVVFHTAFINWQGPLGGVIALSTYAPTFGDELELSASQQRIPALCLHGQYDDVVQNAMGRSAFEHLKSRGVTVTWQEYPMGHEVLPQEIHDIGAWLAARLG,soluble
5,MTERSPLRVGIGGPVGSGKTALTLNLCRALRNKYNMAVVTNDIYTKEDSNFLTRNEAMTPDRIVGVETGGCPHTAIREDASINLAAIDDLCEKFDGLELIIIESGGDNLAATFSPELSDLTLYVIDVAGGEKIPRKGGPGITKSDLLIINKTDLAPMVGANLDVMEQDAKRMRGEKPFLFSNMKTEDGLTQIIEFIEKQGLFKALEHHHHHH,soluble
6,MTESFADLFEQSLQTLEFRPGSIVRGTVVAIENGMVLVDAGLKSESPIPAEQFKNAQGVLEIAVGDEVDVALDSVEDGFGETQLSREKAKRHEAWIVLEKAYEDAETVIGIINGKVKGGFTVELNGIRAFLPGSLVDVRPVRDTAHLEYKELEFKVIKLDQKRNNVVVSRRAVIESESSAERDALLENLQEGQAVKGIVKNLTDYGAFVDLGGVDGLLHITDMAWKRVKHPSEIVNVGDEINVKVLKYDRERTRVSLGLKQLGEDPWLEISKRYPENTKLTGRVTNLTDYGCFVEIEEGVEGLVHVSEMDWTNKNIHPSKVVNLGDEVEVLVLDIDEERRRISLGLKQCKTNPWDDFATRYNKGDKVSGKIKSITDFGIFIGLDGGIDGLVHLSDISWNGTGEDAVSEYKKGDEIHAVVLSVDPERERISLGVKQTEDDPFNAYLADKKKGTIVHGTVSAVDAKGVTVELADTVEGYIRVADISRERIEDASTVYSVGDAIEAKFMGVDRKNRSISLSIKAKDEAEEKEVMATLNKQEDAVISNAMAEAFKAARKLEHHHHHH,soluble
7,MTFAWGRGSHGGAGMRIVQITDTHFSPTKAHFNGNWAPLAAWIEQSGADLVIHTGDLSVDGADRDDDIAFCMDLMREISAPMLLVPGNHDVGHLPGSLQPVNAGRLERWRRLVGPDYWMEDAGSWRLIGLDSLLMGFDDAEEEAQFDWLRTVLESRGGRRVALFAHKPLFVDAPGEGDTGYWSVRPAQRQRLYDLIATHDVALFASGHLHRAWQGKYENTSLVWGPSAALEHHHHHH,soluble
8,MTFGEKLLNAASTRGRLCVGIDPHESLLTSWGLPVNVDGLAEFSRACVEAFADTVALVKPQVAFYERFGSAGFAILEETIQTLRERGCLVVSDAKRGDIGSTMAGYASAWLDPASPLSSDAVTVSPYLGFHSLDPVFELAEQHGRGVFVLAATSNPEARELQDQQNADGVSISQQIVDQAAALNAPYMAQGKAGNIGVVIGATLSKPPRLSTLGGAILMPGVGAQGGTASDVDEIAGDMAHLAFPNVSRSILATGPDIAEMKNSVAKNAADFPGFPRS,soluble
9,MTFIKRLEDAYETLLGNYPAGVSSTSTSKYNEIRKIVSEAFLIGENEVYVTGTSRRISNLDTRFAQGNQRNKHTRMAVAFISIPSVDDSELDELIIRTRNSAITTSSKFCNGEERGTIFDGILLFLVFEGETKVYPLAFLVFENDFELKEKAEELIPGIELKEYPRANQSPAQENNKSAKNEDEESAKSYVVFLDIEEDGSIVEFVEDKDKTYRIGDMIWTASHTNGSSAITRRLEVIEVVENLVVCKIKHKYNEPVDKNSLLKFVNIEQDLISFLDLHPNVQNGSEGFVSGDIVDENATTSSDDLPEDFENN,not soluble
10,MTFYDHLHASPYTWERVGNLLADATAADVERSLAYRRRTIQDFITLISPAAIPYLEQMARQAHALTVERFGHTMQLYIPLYLSNICSNACVYCGFSRSNKIHRRRLTAEEVDREAEAILRLGYKHLLLVSGESEKATPASYYEKMTRRLRPLFSQLSLEVQPLTTEEYARLHEAGIGAVYVYQETYNEQAYPTYHPAGRKADYRYRLETPDRIGRANMQKIGIGALLGLENWRVDSVFTALHLRYLEQTYWKSKFSISLPRLRPATGGWEPKDPIDDVGMVQLITAFRLLDKDVEISLSTRESREFRDHVMPLGITSVSAGSKTEPGGYAEENADLEQFAINDARSPAEMAADLRRLGYEPVWKDWDAFM,not soluble
11,MTGDYALCGWRVRIDRPSTFAPPWIGEDRPVDITIRHAAFSPPSPPLLFESPLVGVFAEGAIVLRINPGLGFLIEGGARITVDATAQTGEAEIATFLFGQCLGFLALQRRQPALRAASVVRDGRAVVLAGAAGVGKSTLAAALMAKGWGLLADEVTLIDPRTLLIPPAFGRIKLWKDSATHLGLEAAALPAVRPGWNKGHAPYGGHLAPAPVPLAAIILIEQAYTAKTAGIDKIAPREALAALNDQLHGGTFAGALAARPACFDLLTTLVGGVPVFQLSRPWHGMTLAPLVELLTAEMARLEHHHHHH,not soluble
12,MTGFDFSDKTVWVTGAGKGIGYATALAFVDAGARVIGFDREFTQENYPFATEVMDVADAAQVAQVCQRVLQKTTRLDVLVNAAGILRMGATDALSVDDWQQTFAVNVGGAFNLFSQTMAQFRRQQGGAIVTVASDAAHTPRIGMSAYGASKAALKSLALTVGLELAGCGVRCNVVSPGSTDTDMQRTLWVSEDAEQQRIRGFGEQFKLGIPLGKIARPQEIANTILFLASDLASHITLQDIVVDGGSTLGA,not soluble
13,MTGTERKVFQKYYPPDFDPSKIPRAKGQKNRQFVQRVMTPFNMQCNTCHEYIYKGKKFNMKRETAEGETYLGLKLFRFYFRCPNCLAEITFKTDLENCDYQNEHGATRLFEAVKLYQDQQKQVDEQEAEDAKDPMKMLEKRTMQSRQEMEEMGNLEDLQESSRTKECIDTIGFLSSTDPHIAQAQRIKMMEDEDDRMARELMGITSEGRIERRIKDDEDNSDGADEDDKDIPGPSASVVPSTSSMLKPAIPKLGMDDSGNSRKRNEQRDRFAGIKLIKKAKPSEPSTSSTASSTSSAPPPLPSSAASSGLSLLADYGSGSDSD,not soluble
14,MTHHTEVFEGGTIDIEDDTSLTINGKEISYVHDAVKNKWSSRYLPYTQYDSLLDLARAIIRDTVEFSGVKE,soluble
15,MTHLFALSELPLDEIHRLLDEAEAFRSGRIWRPAAPMYVANLFFEPSTRTKCSFEMAERKLGLHVIPFDPERSSVQKGETLYDTVRTLEAIGVDAVVIRHHEDAYFEALRHAVGIPIINAGDGCGHHPTQSLLDLLTIRQEFGAFTGLTVAIIGDIRHSRVARSNAEVLTRLGANVLFSGPAEWKDETNPYGTYVEVDEAIARADVVMLLRIQHERHAETMGLTKEEYHARYGLTLERARRMKSGAIILHPAPVNRGVEIASELVEAKASRIFKQMENGVYVRMAVLKRAMEGRMEHGRMAEKWHVVQ,soluble
16,MTHPIIHDLENRYTSKKYDPSKKVSQEDLAVLLEALRLSASSINSQPWKFIVIESDAAKQRMHDSFANMHQFNQPHIKACSHVILFANKLSYTRDDYDVVLSKAVADKRITEEQKEAAFASFKFVELNCDENGEHKAWTKPQAYLALGNALHTLARLNIDSTTMEGIDPELLSEIFADELKGYECHVALAIGYHHPSEDYNASLPKSRKAFEDVITIL,soluble
17,MTIASITLTNNRLEWQSLLPNTTPYEALFATASQLEPVAFSAYQPRLENGMTLFCHPQSQPRFMLIKAQESTDYLALIAQAVKALQPEASNLLGGDYLVHGHHVTWQSAQHGDERFAAQSTCLYQEWVEPEQLFGCVRMYKDQITLQPGLVHQVNGGVLILSVRALQAQPLMWLRLKQMIVQQRFDWLSTDETRPLPVHIPSMPLDLRLILVGDRLGLADFHDMEPELGDLAIYGEFEAELPLVDIEGMALWCGYINTLLQQKQLPALSADAWPVLFRQAVRYSGDQGSLPLCPQWLTQQLAEAALYAENDTISANALEAALNARNWRQNYLAERMQDEIELGQILVETEGHVVGQINALSVLEYPGHPHAFGEPARISCVVHLGDGEFVDVERKAELGGNIHAKGMMIMQAFLMSELELDQPLPFSASIVFEQSYGEVDGDSASLAELCALVSALSQQPINQQIAVTGSVDQFGNVQPIGGVNEKIEGFFETCQRRGLTGNQGVILPTTNVRHLCLNQAVVEAVQKGQFHLWAVDTVAEALPLLTGVTYDDEQQPSLLGAIQERIAQINPQDKRRWPWPLRWLNWFNQG,soluble
18,MTICRPGKGHLMIQFDAVHKRFPNGTTAVHDLSLEMPEGGVTVLVGSSGCGKTTTLRMINRMVDPTSGTIRVGGRDILEQDAAELRRSIGYVIQQSGLFPHRTVLDNIATVPLLLGWGRRKARARAAELLDTVGLAADAGRRYPHQLSGGQQQRVGVARALAADPPVLLMDEPFGAVDPVVRTQLQDELLRLQKELSKTIVFVTHDIDEAVRLGDQIAVFRTGGHLVQCASPAELLARPADDFVADFLGAERGLKLLSLTTLADVPQGPAPEGGAWTLVLDEARRPQHWRSKDGAELPVRPLRDRDSLLAALNESVASPNGLTVRVDADGVLTGVSSRDDIHEHAGRAHSEASVAALEHHHHHH,not soluble
19,MTIEKIDTLVIGAGQAGVAMSEHLSKQDVPHLVLERNRIAEQWRTGRWDSLVANGPAWHDRFPGLEFEEHDPDSFVPKEKIADYLVDYAKKFDAPIRTGIEVKNVERNTNGQGFIIETSQGTIEAKRVVSATGPFQVPVIPPIAKNEKITQIHSADYRNPEQLEDGAVLVVGAGSSGVQIADELQRSGRKVFLSTGPHDRPPRSYRNRDFCWWLGVLGEWDRESLEPGTEHVTIAVTGAHGGNGTVDFRALAHQGITLLGMTKEFNNGKVTFQKDLNTNVERGNKNYMDFLDSADAYIERNGLDLPEEPTARDVLSDPECMTNPILELDLAKEGITSIVWATGFALDYSWLNVDAFDENGKPAHQRGVSTEPGVYFVGQAWLSRRGSAFIWGVWHDAKHIAGHISTQRTYSAYQDASQRLEHHHHHH,soluble
20,MTIPFDHWPEWPQHSDRTRRKIEEVFQSNRWAISGYWTGEESMERKFAKAFADFNGVPYCVPTTSGSTALMLALEALGIGEGDEVIVPSLTWIATATAVLNVNALPVFVDVEADTYCIDPQLIKSAITDKTKAIIPVHLFGSMANMDEINEIAQEHNLFVIEDCAQSHGSVWNNQRAGTIGDIGAFSCQQGKVLTAGEGGIIVTKNPRLFELIQQLRADSRVYCDDSSELMHGDMQLVKKGDIQGSNYCLSEFQSAILLDQLQELDDKNAIREKNAMFLNDALSKIDGIKVMKRPPQVSRQTYYGYVFRFDPVKFGGLNADQFCEILREKLNMGTFYLHPPYLPVHKNPLFCPWTKNRYLKSVRKTEAYWRGLHYPVSERASGQSIVIHHAILLAEPSHLSLLVDAVAELARKFCVTH,soluble
